Reference: publication PMC6328613

Columns and labels:
MBP-Scyl1 [1] = biological target: MBP-Scyl1 (UniProt Q96KG9); test: SPR; ProteOn XPR36, GLH chip; cross-linked anti-MBP antibody, MBP-Scyl1 captured (3000 RU), GST-GORAB variants as analyte at 30 nM, 100 µL/min, 120 s association, 600 s dissociation; 150 mM NaCl, 10 mM HEPES, 0.02% Tween-20, pH 7.4
MBP-Scyl1 [2] = biological target: MBP-Scyl1 (UniProt Q96KG9)

Chain of UniProt Q96KG9 (Q96KG9 whole entry): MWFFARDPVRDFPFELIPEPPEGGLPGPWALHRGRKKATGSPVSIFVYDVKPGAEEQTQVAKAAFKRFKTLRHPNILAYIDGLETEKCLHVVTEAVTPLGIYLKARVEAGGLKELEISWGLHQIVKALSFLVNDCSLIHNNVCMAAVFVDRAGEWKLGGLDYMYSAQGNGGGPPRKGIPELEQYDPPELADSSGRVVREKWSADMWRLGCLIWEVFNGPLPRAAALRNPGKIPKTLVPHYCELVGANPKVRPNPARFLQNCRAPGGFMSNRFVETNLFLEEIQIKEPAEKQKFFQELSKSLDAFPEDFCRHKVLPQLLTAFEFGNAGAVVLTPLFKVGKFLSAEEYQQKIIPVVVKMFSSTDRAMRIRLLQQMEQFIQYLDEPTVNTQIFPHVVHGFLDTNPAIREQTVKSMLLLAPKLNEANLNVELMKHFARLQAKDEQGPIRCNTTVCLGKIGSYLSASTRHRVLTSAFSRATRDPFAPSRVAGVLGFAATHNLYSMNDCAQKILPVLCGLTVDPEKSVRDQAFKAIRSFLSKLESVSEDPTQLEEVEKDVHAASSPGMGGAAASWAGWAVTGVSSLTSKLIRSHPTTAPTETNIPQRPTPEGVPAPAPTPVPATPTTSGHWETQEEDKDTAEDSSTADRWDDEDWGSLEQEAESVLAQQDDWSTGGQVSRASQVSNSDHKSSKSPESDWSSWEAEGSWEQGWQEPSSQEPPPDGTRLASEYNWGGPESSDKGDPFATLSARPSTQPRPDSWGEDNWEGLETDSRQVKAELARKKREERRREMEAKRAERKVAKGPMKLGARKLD

| Substance | Kd (MBP-Scyl1 [1]) | recruitment of coatomer (δ-COP, ε-COP) to liposomes in the presence of myr-Arf1, with MBP-Scyl1 against MBP-IPIP27A (MBP-Scyl1 [2]) |
| --- | --- | --- |
| GST-GORAB (natural protein) | 0.52 nM | – |
| GST-GORAB K190del (natural protein) | 0.52 nM | – |
| recombinant mouse coatomer isotype γ2ζ1 (from UniProt Q9QXK3 1-871; P61924 1-177; Q5XJY5 1-511; O89079 1-308; O55029 1-905) (complex) | – | 2 fold |
